The source of these data is publication doi:10.1101/2024.12.31.629942 (bioRxiv, 2024).

Substitutions are numbered along the chain they refer to. Names and notes keep the numbering of the source.

Data set [1] concerns the molecule itself. Briefly: sedimentation of polymers.
The target of a further data set is T1, FtsZ^D212N (untagged) (E. coli, UniProt P0A9A6 1-383, D212N).
T1 sequence: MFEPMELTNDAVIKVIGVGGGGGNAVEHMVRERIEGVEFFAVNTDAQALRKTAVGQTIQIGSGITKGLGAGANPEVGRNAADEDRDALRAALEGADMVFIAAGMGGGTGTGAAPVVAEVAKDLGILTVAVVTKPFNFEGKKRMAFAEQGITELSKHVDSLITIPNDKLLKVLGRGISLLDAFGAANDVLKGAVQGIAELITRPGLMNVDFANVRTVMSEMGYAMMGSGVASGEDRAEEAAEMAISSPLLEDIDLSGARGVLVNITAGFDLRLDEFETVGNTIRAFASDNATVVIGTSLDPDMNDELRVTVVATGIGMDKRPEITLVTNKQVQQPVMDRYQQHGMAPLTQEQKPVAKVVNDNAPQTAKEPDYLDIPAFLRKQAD
The experiment in a line: pull-down.

Data set [2] addresses T2, FtsZ (wild-type, untagged) (E. coli, UniProt P0A9A6 1-383).
T2 sequence: T1 sequence with N212D
Briefly: co-sedimentation.

B1: FtsZ^F2A (untagged) (natural protein)
chain: T1 sequence with F2A, N212D
With B1, the binding result in data set [1] is “binds”.

B2: H-SUMO-ZapA (natural protein)
chain: MSAQPVDIQIFGRSLRVNCPPDQRDALNQAADDLNQRLQDLKERTRVTNTEQLVFIAALNISYELAQEKAKTRDYAASMEQRIRMLQQTIEQALLEQGRITEKTNQNFE
B2: in the data set with FtsZ^D212N (untagged), the binding result is recorded as “binds”.

B3: ZapA (untagged) (natural protein)
chain: B2 chain
For B3, the binding result in data set [2] was “binds”.
